Assay results taken from patent US20240174727A1, “LONG-ACTING NATRIURETIC PEPTIDES AND USES THEREOF” (Eli Lilly and Company, priority 2022, published 2024).
Numbered stars: 1 amine (or outer) side, 2 acyl side, 3 side chain; on linkers, the order of the positions; unused ones are H or OH. Bridge positions count the residues as written; N and C are the ends. Square brackets hold non-standard residues; d marks the D form. * marks the point of attachment. thioacetal = thioacetal linkage between two cysteines (intrachain bond at the bracketed Cys); C20 diacid = O=C(O)CCCCCCCCCCCCCCCCCCC(=O)*; γGlu = O=C(O)[C@H](CCC(=O)[*:2])N[*:1]; βAla = NCCC(=O)O

T1: human NPRA (human, UniProt P16066 33-1061)
T1 sequence (looked up): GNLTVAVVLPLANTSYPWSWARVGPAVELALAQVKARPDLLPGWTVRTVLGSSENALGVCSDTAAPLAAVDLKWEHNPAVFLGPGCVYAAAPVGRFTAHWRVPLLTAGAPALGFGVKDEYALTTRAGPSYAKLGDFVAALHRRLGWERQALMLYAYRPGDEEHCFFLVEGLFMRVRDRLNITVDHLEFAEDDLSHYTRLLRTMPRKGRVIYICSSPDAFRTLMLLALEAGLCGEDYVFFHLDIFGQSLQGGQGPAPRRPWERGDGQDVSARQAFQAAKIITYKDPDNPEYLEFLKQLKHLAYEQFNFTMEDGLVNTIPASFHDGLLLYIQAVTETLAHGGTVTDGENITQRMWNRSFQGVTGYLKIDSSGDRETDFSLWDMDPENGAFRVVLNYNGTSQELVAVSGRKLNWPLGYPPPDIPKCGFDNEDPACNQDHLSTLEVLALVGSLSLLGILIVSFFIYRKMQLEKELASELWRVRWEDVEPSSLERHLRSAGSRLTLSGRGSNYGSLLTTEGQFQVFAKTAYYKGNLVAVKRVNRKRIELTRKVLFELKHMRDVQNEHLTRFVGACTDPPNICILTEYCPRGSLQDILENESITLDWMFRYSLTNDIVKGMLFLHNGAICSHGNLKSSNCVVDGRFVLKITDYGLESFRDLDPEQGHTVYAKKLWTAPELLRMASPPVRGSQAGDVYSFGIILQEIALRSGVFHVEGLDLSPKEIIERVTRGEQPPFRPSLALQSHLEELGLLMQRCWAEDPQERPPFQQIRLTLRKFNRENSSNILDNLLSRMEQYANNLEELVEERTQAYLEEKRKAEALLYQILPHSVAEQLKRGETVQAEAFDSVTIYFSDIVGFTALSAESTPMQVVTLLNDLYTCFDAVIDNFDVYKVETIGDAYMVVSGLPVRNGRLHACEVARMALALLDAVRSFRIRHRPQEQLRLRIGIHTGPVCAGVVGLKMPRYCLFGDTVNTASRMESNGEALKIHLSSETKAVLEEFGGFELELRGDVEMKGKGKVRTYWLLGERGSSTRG

T2: rat NPRA (rat, UniProt P18910 29-1057)
T2 sequence (looked up): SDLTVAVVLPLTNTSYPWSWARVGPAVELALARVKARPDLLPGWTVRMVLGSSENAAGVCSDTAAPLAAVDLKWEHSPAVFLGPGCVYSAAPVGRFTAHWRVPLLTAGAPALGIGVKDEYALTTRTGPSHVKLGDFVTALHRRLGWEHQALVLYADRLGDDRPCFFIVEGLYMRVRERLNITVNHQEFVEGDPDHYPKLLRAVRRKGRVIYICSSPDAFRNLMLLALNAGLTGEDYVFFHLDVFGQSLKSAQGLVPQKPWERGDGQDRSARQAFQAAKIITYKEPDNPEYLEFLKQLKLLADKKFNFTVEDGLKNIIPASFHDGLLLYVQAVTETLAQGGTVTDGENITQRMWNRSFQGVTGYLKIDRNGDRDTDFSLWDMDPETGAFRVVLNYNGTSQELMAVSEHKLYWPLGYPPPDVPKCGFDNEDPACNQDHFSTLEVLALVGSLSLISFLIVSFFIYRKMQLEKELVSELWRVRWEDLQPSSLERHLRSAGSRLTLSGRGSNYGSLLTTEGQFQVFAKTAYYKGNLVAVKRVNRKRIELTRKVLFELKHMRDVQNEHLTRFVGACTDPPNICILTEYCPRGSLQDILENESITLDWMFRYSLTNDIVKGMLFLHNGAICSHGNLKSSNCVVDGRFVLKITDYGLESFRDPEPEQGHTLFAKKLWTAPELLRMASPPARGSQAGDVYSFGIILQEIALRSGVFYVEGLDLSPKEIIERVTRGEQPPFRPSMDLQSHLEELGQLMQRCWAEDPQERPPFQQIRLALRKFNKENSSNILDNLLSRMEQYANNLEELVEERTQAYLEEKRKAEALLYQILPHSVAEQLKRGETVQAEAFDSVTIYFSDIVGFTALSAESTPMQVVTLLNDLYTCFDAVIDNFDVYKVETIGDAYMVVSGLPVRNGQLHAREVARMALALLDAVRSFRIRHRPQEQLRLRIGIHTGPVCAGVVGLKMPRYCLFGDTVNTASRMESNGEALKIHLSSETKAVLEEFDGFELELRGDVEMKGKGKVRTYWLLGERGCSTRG

T3: rat NPRA (rat, UniProt P18910 29-1057)
T3 sequence (looked up): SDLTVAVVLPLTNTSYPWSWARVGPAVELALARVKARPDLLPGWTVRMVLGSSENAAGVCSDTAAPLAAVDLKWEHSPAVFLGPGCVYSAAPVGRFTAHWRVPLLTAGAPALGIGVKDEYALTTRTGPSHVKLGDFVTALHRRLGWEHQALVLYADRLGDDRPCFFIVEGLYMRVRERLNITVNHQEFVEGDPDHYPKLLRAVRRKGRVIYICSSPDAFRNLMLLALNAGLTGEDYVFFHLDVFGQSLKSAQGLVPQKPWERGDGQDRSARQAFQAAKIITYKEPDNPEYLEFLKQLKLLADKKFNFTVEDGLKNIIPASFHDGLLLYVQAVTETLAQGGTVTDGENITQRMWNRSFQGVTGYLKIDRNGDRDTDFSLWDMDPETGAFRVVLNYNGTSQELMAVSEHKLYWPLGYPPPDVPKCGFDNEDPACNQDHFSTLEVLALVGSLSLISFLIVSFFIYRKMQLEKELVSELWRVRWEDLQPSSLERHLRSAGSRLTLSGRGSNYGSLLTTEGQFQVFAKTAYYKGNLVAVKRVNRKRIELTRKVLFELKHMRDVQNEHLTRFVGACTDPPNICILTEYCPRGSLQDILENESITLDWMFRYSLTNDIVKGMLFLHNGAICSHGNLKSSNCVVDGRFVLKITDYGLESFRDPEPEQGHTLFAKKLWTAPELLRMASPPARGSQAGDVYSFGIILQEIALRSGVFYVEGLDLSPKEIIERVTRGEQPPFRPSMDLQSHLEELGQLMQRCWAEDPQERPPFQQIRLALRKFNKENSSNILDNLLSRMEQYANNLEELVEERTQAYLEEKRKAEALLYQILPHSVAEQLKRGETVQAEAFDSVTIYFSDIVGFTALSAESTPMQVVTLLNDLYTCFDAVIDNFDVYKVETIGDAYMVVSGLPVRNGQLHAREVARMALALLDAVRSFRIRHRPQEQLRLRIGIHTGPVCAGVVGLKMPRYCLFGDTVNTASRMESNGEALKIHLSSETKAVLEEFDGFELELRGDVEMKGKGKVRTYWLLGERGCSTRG

T4: human NPRA (human, UniProt P16066 33-1061)
T4 sequence (looked up): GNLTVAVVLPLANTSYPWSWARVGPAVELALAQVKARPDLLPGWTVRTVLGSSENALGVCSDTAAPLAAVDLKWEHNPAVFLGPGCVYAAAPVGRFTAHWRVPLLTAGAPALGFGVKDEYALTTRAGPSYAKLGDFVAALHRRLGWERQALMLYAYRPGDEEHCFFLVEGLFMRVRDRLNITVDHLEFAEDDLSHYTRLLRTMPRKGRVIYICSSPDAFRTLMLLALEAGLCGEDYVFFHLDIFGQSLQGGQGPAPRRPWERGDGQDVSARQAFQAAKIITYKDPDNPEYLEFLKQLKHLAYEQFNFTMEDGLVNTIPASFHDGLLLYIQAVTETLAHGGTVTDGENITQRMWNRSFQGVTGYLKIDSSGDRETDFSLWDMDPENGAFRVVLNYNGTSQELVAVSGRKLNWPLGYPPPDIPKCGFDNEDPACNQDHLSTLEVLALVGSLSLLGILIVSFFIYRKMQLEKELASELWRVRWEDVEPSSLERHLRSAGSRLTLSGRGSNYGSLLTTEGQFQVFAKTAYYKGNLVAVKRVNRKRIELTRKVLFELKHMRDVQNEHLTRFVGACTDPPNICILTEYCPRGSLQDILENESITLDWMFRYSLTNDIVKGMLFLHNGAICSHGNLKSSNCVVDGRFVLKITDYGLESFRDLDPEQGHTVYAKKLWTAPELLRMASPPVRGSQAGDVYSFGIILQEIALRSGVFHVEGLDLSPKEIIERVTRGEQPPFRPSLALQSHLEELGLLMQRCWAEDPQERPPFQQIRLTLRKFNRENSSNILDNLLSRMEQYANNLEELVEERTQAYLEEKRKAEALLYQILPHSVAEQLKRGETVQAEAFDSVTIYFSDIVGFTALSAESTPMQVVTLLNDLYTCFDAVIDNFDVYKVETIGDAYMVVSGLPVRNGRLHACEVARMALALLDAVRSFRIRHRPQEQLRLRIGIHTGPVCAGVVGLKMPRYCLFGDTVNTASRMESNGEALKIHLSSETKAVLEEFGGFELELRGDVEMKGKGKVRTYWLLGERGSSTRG


Tests used:
Experiment in all cases: cell-based or functional assay
human NPRA [1] = biological target: T1, human NPRA
rat NPRA [2] = biological target: T2, rat NPRA
rat NPRA [3] = biological target: T3, rat NPRA; remark: listed apart in the source
human NPRA [4] = biological target: T4, human NPRA; remark: listed apart in the source

| Binder | cGMP Assay (EC50, pM) w/BSA, hNPRA (human NPRA [1]) | cGMP Assay (EC50, pM) w/Casein, hNPRA (human NPRA [1]) | cGMP Assay (EC50, pM) w/BSA, rNPRA (rat NPRA [2]) | cGMP Assay (EC50, pM) w/Casein, rNPRA (rat NPRA [2]) | cGMP Assay (EC50, pM) w/BSA (rat NPRA [3]) | cGMP Assay (EC50, pM) w/Casein (rat NPRA [3]) | cGMP Assay (EC50, pM) w/BSA (human NPRA [4]) | cGMP Assay (EC50, pM) w/Casein (human NPRA [4]) |
| --- | --- | --- | --- | --- | --- | --- | --- | --- |
| SXRRSSCFGKRIDRIGHYSGLGCPSFRHGSPSSGAPPPS (N-terminus acylated with HOOC-(CH2)18-CO-(γGlu)-; (AEEA)6 after EKEKEKG; 4Pal; thioacetal linkage between the two bracketed Cys; C-terminal amide) [HOOC-(CH2)18-CO-(γGlu)-EKEKEKG-(AEEA)6-S-4Pal-RRSS[CFGKRIDRIGHYSGLGC]PSFRHGSPSSGAPPPS-NH2] | 6020 pM | 621 pM | 149000 pM | 6360 pM | – | – | – | – |
| {C20 diacid}-[γGlu]EKEKEKGSHRRSSCFGGRIDRIGAQSGLGCPSFRH-NH2 (disulfide 15-31; SMILES CC[C@H](C)[C@@H]1NC(=O)[C@H](CCCNC(=N)N)NC(=O)[C@H](CC(=O)O)NC(=O)[C@H]([C@@H](C)CC)NC(=O)[C@H](CCCNC(=N)N)NC(=O)CNC(=O)CNC(=O)[C@H](Cc2ccccc2)NC(=O)[C@@H](NC(=O)[C@H](CO)NC(=O)[C@H](CO)NC(=O)[C@H](CCCNC(=N)N)NC(=O)[C@H](CCCNC(=N)N)NC(=O)[C@H](Cc2c[nH]cn2)NC(=O)[C@H](CO)NC(=O)CNC(=O)[C@H](CCCCN)NC(=O)[C@H](CCC(=O)O)NC(=O)[C@H](CCCCN)NC(=O)[C@H](CCC(=O)O)NC(=O)[C@H](CCCCN)NC(=O)[C@H](CCC(=O)O)NC(=O)CC[C@H](NC(=O)CCCCCCCCCCCCCCCCCCC(=O)O)C(=O)O)CSSC[C@@H](C(=O)N2CCC[C@H]2C(=O)N[C@@H](CO)C(=O)N[C@@H](Cc2ccccc2)C(=O)N[C@@H](CCCNC(=N)N)C(=O)N[C@@H](Cc2c[nH]cn2)C(N)=O)NC(=O)CNC(=O)[C@H](CC(C)C)NC(=O)CNC(=O)[C@H](CO)NC(=O)[C@H](CCC(N)=O)NC(=O)[C@H](C)NC(=O)CNC1=O) [Example 18] | – | – | – | – | 43200 pM | 693 pM | 17100 pM | 460 pM |
| EKPRSSCFGKRIDRIGHYSGLGCPSFRHSGSPSSGAPPPSG (N-terminus acylated with HOOC-(CH2)18-CO-(γGlu)-; (AEEA)6 after EKEKEKG; thioacetal linkage between the two bracketed Cys; C-terminal amide) [HOOC-(CH2)18-CO-(γGlu)-EKEKEKG-(AEEA)6-EKPRSS[CFGKRIDRIGHYSGLGC]PSFRHSGSPSSGAPPPSG-NH2] | 8970 pM | 745 pM | 205000 pM | 3830 pM | – | – | – | – |
| {C20 diacid-γGlu}-EKEKEKGEK[βAla]RSSCFGKRIDRIGHYSGLGCPSFRHGSPSSGAPPPS-NH2 (bridge 14-30 via thioacetal) [HOOC-(CH2)18-CO-(γGlu)-EKEKEKGEK-βAla-RSS[CFGKRIDRIGHYSGLGC]PSFRHGSPSSGAPPPS-NH2] | 11600 pM | 282 pM | 138000 pM | 1340 pM | – | – | – | – |
| XEKEKEKGEKPRSSCFGKRIDRIGXQSGLGCPSFRHGSPSSGAPPPS (N-terminus acylated with HOOC-(CH2)18-CO-(γGlu)-; Orn; thioacetal linkage between the two bracketed Cys; C-terminal amide) [HOOC-(CH2)18-CO-(γGlu)-EKEKEKGEKPRSS[CFGKRIDRIG-Orn-QSGLGC]PSFRHGSPSSGAPPPS-NH2] | – | – | – | 192000 pM | – | – | – | – |
